Assay results: the supplement of paper PMC10126150
± gives the standard deviation of the averaged measurements.

Tested on: ATP
Assay: switch fluorescence ratio, 500 uM ATP over buffer (Cy3 cluster intensity, sum of 5 cycles each) (fold (ratio)); higher = stronger signal-on switching upon ATP binding; sequences stand for … in TCGTCGGCAGCGTCAGATGTGTATAAGAGACAGTTTTTTTTTTTTTTTTTTTTTTTTT…TC
Conditions: aptamer strand: ATP DNA aptamer (quencher-CACCTGGGGGAGTATTGCGGAGGAAGG + anchor), 100 nM annealed; ATP concentration: 500 uM
In short: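 For every switch-domain sequence, the fluorescence ratio is the mean of per-cluster values, each being summed target-cycle Cy3 intensity over summed buffer-cycle Cy3 intensity. Clusters outside 100-1000 RFU were excluded. On a modified Illumina MiSeq flow-cell, the Cy3-labelled switching-strand clusters were annealed to 100 nM quencher-labelled ATP aptamer, imaged in selection buffer and then after 15 min with 500 uM ATP at 22 °C. Five such cycles were run, with NaOH stripping and re-annealing between them.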
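Also: ATP exposure 15 min at 22 °C before imaging.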

**Q.** With TTCGGGTTAT as the sequence, how does the switch fluorescence ratio read?
**A.** 1.01 ± 0.049

**Q.** Which switch fluorescence ratio does the source give for TTCCATCGGG here?
**A.** 0.993 ± 0.033

**Q.** Which switch fluorescence ratio does the source give for ATAGAATTTA here?
**A.** 0.956 ± 0.024

**Q.** TGGGGTAGCT was tested. Which switch fluorescence ratio did it give?
**A.** 0.997 ± 0.015

**Q.** With TCGAATAGAT as the sequence, how does the switch fluorescence ratio read?
**A.** 0.958 ± 0.04

**Q.** Which switch fluorescence ratio does the source give for AGCGTAGTCA here?
**A.** 0.9868 ± 0.0021

**Q.** For TTACGGGCGT, which switch fluorescence ratio is on record?
**A.** 0.99 ± 0.013

**Q.** For TCGGATTGGA, which switch fluorescence ratio is on record?
**A.** 0.981 ± 0.028

**Q.** How did the switch fluorescence ratio turn out when AAGGACCTCC was run?
**A.** 1.232 ± 0.0034

**Q.** For ATTTGCGATT, which switch fluorescence ratio is on record?
**A.** 1.03 ± 0.019

**Q.** CCTTTTACTT was tested. Which switch fluorescence ratio did it give?
**A.** 1.03 ± 0.032

**Q.** How did the switch fluorescence ratio turn out when CGAGAACTGG was run?
**A.** 1.09 ± 0.14

**Q.** For TGTAATGCCC, which switch fluorescence ratio is on record?
**A.** 0.991 ± 0.02

**Q.** With GCTGTAGACT as the sequence, how does the switch fluorescence ratio read?
**A.** 0.992 ± 0.038

**Q.** For TGGATTTCGG, which switch fluorescence ratio is on record?
**A.** 1.016 ± 0.0065

**Q.** How did the switch fluorescence ratio turn out when TACGTAGGTG was run?
**A.** 1.04 ± 0.031

**Q.** GAGGGCGTAA was tested. Which switch fluorescence ratio did it give?
**A.** 1.06 ± 0.035

**Q.** For ACTGAATTTG, which switch fluorescence ratio is on record?
**A.** 1.02 ± 0.053

**Q.** CCTAGATAAC was tested. Which switch fluorescence ratio did it give?
**A.** 1.16 ± 0.039

**Q.** With GGGTGGGTGG as the sequence, how does the switch fluorescence ratio read?
**A.** 0.989 ± 0.017

**Q.** GAGTTCGGGG was tested. Which switch fluorescence ratio did it give?
**A.** 0.987 ± 0.014

**Q.** TTTGTATTAC was tested. Which switch fluorescence ratio did it give?
**A.** 1.32 ± 0.38

**Q.** AAGTGGTGCA was tested. Which switch fluorescence ratio did it give?
**A.** 0.974 ± 0.013

**Q.** Which switch fluorescence ratio does the source give for GCGGACCGGG here?
**A.** 1.04 ± 0.031

**Q.** How did the switch fluorescence ratio turn out when GCAGCTGTAT was run?
**A.** 1.08 ± 0.014

**Q.** How did the switch fluorescence ratio turn out when TTTAGCGCAT was run?
**A.** 1.04 ± 0.06

**Q.** TTAGTATTCT was tested. Which switch fluorescence ratio did it give?
**A.** 0.992 ± 0.031

**Q.** GGGGTTCATT was tested. Which switch fluorescence ratio did it give?
**A.** 1.01 ± 0.04

**Q.** Which switch fluorescence ratio does the source give for TAAAAGGGGA here?
**A.** 0.982 ± 0.029

**Q.** How did the switch fluorescence ratio turn out when GGAAGAAAAA was run?
**A.** 1.01 ± 0.067

**Q.** With TGTAGTACTT as the sequence, how does the switch fluorescence ratio read?
**A.** 1.02 ± 0.016

**Q.** For TTTCGAAGGG, which switch fluorescence ratio is on record?
**A.** 1.04 ± 0.07

**Q.** How did the switch fluorescence ratio turn out when CGCACCATGC was run?
**A.** 2.41 ± 0.073

**Q.** For CTTGTAACTT, which switch fluorescence ratio is on record?
**A.** 1.01 ± 0.032

**Q.** Which switch fluorescence ratio does the source give for CTATTTATCA here?
**A.** 1.02 ± 0.053

**Q.** With ATCAGGCGGA as the sequence, how does the switch fluorescence ratio read?
**A.** 1 ± 0.045

**Q.** Which switch fluorescence ratio does the source give for CGTAACTTAC here?
**A.** 1.6 ± 0.097

**Q.** ACATTTGCCC was tested. Which switch fluorescence ratio did it give?
**A.** 1.069 ± 0.003

**Q.** With TAGGAAAGGC as the sequence, how does the switch fluorescence ratio read?
**A.** 0.982 ± 0.027

**Q.** With GGTGTATGAA as the sequence, how does the switch fluorescence ratio read?
**A.** 0.994 ± 0.029

**Q.** For AGTATGCATA, which switch fluorescence ratio is on record?
**A.** 0.951 ± 0.016

**Q.** How did the switch fluorescence ratio turn out when AAAATGGGCC was run?
**A.** 0.963 ± 0.033

**Q.** Which switch fluorescence ratio does the source give for GCAAGACAAG here?
**A.** 1.05 ± 0.036

**Q.** How did the switch fluorescence ratio turn out when GGGAGGATTT was run?
**A.** 0.987 ± 0.013

**Q.** With ACGTCTGGCT as the sequence, how does the switch fluorescence ratio read?
**A.** 0.996 ± 0.028

**Q.** For TCGGCAGTGG, which switch fluorescence ratio is on record?
**A.** 1.03 ± 0.027

**Q.** Which switch fluorescence ratio does the source give for TGATGGAAGT here?
**A.** 0.986 ± 0.031

**Q.** How did the switch fluorescence ratio turn out when CGATTGGGGT was run?
**A.** 1.02 ± 0.034

**Q.** GTTTGGATCG was tested. Which switch fluorescence ratio did it give?
**A.** 1 ± 0.015

**Q.** With TGAGAATGGG as the sequence, how does the switch fluorescence ratio read?
**A.** 0.995 ± 0.044

**Q.** AGCGCTGCCT was tested. Which switch fluorescence ratio did it give?
**A.** 0.996 ± 0.031

**Q.** GATTATGCTC was tested. Which switch fluorescence ratio did it give?
**A.** 1.01 ± 0.015

**Q.** With TTGAAATTTG as the sequence, how does the switch fluorescence ratio read?
**A.** 1 ± 0.011

**Q.** With GGGACTTAGC as the sequence, how does the switch fluorescence ratio read?
**A.** 1.02 ± 0.022

**Q.** AGATTAGGCA was tested. Which switch fluorescence ratio did it give?
**A.** 0.992 ± 0.013

**Q.** For AGCTCTAAGA, which switch fluorescence ratio is on record?
**A.** 1.02 ± 0.021

**Q.** How did the switch fluorescence ratio turn out when AGTATTTTGG was run?
**A.** 1.01 ± 0.018

**Q.** Which switch fluorescence ratio does the source give for CTGTAGGGTT here?
**A.** 1.01 ± 0.034

**Q.** Which switch fluorescence ratio does the source give for AGTTGGGTGC here?
**A.** 0.99 ± 0.018

**Q.** For ATGCCGAAGG, which switch fluorescence ratio is on record?
**A.** 0.985 ± 0.054

**Q.** How did the switch fluorescence ratio turn out when AAGTCTGCCA was run?
**A.** 1.47 ± 0.66

**Q.** For TTTGGCATGC, which switch fluorescence ratio is on record?
**A.** 1.11 ± 0.14

**Q.** For GTGTATAGGC, which switch fluorescence ratio is on record?
**A.** 1.09 ± 0.038

**Q.** For GATCGGTACG, which switch fluorescence ratio is on record?
**A.** 1 ± 0.011

**Q.** How did the switch fluorescence ratio turn out when AGGAGATTCA was run?
**A.** 0.959 ± 0.041

**Q.** With CTATCCGTGC as the sequence, how does the switch fluorescence ratio read?
**A.** 1.287 ± 0.0028

**Q.** GGCGTAATCT was tested. Which switch fluorescence ratio did it give?
**A.** 1.04 ± 0.037

**Q.** With ATTTTTAGGG as the sequence, how does the switch fluorescence ratio read?
**A.** 1.02 ± 0.033

**Q.** For AGCCTTATCC, which switch fluorescence ratio is on record?
**A.** 1.09 ± 0.02

**Q.** With GCTACTTTTG as the sequence, how does the switch fluorescence ratio read?
**A.** 0.998 ± 0.027

**Q.** Which switch fluorescence ratio does the source give for AATTTATGGG here?
**A.** 0.986 ± 0.021

**Q.** For ACGTGGTAGC, which switch fluorescence ratio is on record?
**A.** 1 ± 0.03

**Q.** With ATTAAGGGTG as the sequence, how does the switch fluorescence ratio read?
**A.** 1.04 ± 0.093

**Q.** For GGGGGCCTTA, which switch fluorescence ratio is on record?
**A.** 1.01 ± 0.047

**Q.** GGATGGGATA was tested. Which switch fluorescence ratio did it give?
**A.** 1 ± 0.016

**Q.** GCAGGGGTTA was tested. Which switch fluorescence ratio did it give?
**A.** 1.28 ± 0.43

**Q.** For AGATTCTGGG, which switch fluorescence ratio is on record?
**A.** 0.971 ± 0.016

**Q.** With CCCTGGCACT as the sequence, how does the switch fluorescence ratio read?
**A.** 1.12 ± 0.005

**Q.** With GCGTCCACGG as the sequence, how does the switch fluorescence ratio read?
**A.** 1.017 ± 0.01

**Q.** AGTTTACATT was tested. Which switch fluorescence ratio did it give?
**A.** 1.02 ± 0.026

**Q.** ATTGGAGGGC was tested. Which switch fluorescence ratio did it give?
**A.** 0.96 ± 0.038

**Q.** GGATCTTGTG was tested. Which switch fluorescence ratio did it give?
**A.** 1.01 ± 0.021

**Q.** TGGGCAGGGC was tested. Which switch fluorescence ratio did it give?
**A.** 1.04 ± 0.058

**Q.** GGTTTGACTA was tested. Which switch fluorescence ratio did it give?
**A.** 0.9857 ± 0.0066

**Q.** Which switch fluorescence ratio does the source give for CCGCCTTGTT here?
**A.** 1.11 ± 0.044

**Q.** GCTAAAGTCG was tested. Which switch fluorescence ratio did it give?
**A.** 0.9814 ± 0.005

**Q.** How did the switch fluorescence ratio turn out when GAGGTTGATG was run?
**A.** 1.01 ± 0.02

**Q.** For GAAGGGTGCG, which switch fluorescence ratio is on record?
**A.** 1.02 ± 0.034

**Q.** GGTGGCGTTA was tested. Which switch fluorescence ratio did it give?
**A.** 0.999 ± 0.016

**Q.** For CCGTCCGGTT, which switch fluorescence ratio is on record?
**A.** 1.16 ± 0.018

**Q.** For TTAAGTCTAT, which switch fluorescence ratio is on record?
**A.** 0.9889 ± 0.0078

**Q.** Which switch fluorescence ratio does the source give for AATTTTTCTT here?
**A.** 0.98 ± 0.05

**Q.** Which switch fluorescence ratio does the source give for AAAGGGCATG here?
**A.** 1 ± 0.011

**Q.** How did the switch fluorescence ratio turn out when CATACGGGGT was run?
**A.** 1.01 ± 0.032

**Q.** AAGATTTAGG was tested. Which switch fluorescence ratio did it give?
**A.** 1.01 ± 0.063

**Q.** For TGTGGCCAGG, which switch fluorescence ratio is on record?
**A.** 1.04 ± 0.056

**Q.** For AGTTTATACT, which switch fluorescence ratio is on record?
**A.** 1.03 ± 0.0032

**Q.** For GCGTCACGTC, which switch fluorescence ratio is on record?
**A.** 1.05 ± 0.054

**Q.** Which switch fluorescence ratio does the source give for CGAGGAAAGG here?
**A.** 0.9865 ± 0.0089

**Q.** How did the switch fluorescence ratio turn out when AAGGAAAGGC was run?
**A.** 0.961 ± 0.037
